From patent US20120316071A1 (published 2012) come the findings set out here.

For experiment [1], the target named is T1, Recombinant Human DLL4 (human, UniProt Q9NR61 27-524).
T1 construct: Bought recombinant human DLL4 (R&D Systems Cat#1506-D4/CF), coated on the plate; also called delta-like protein 4; rHuman DLL4
Put plainly: ECL (MSD) 96-well plate assay, DLL4 coated at 30 ug/mL, Fab 0.1 uM; signal over blank.

The target in experiment [2] is T1, Recombinant Human DLL4. Put plainly: ECL (MSD) 96-well plate assay, DLL4 coated at 15 ug/mL, Fab 0.02 uM; signal over blank.
In experiment [3] the target is T2, Recombinant Human DLL4 (R&D Systems Cat#1506-D4/CF) (human, UniProt Q9NR61 27-524).
T2 construct: Bought recombinant protein; also called delta-like protein 4; rHuman DLL4
Put plainly: ECL multispot (MSD) binding assay, antigen spotted on plate, Fab 0.04 uM.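 Further: purified Fab incubated 1 h at 20 °C on antigen spots, detected via TAG-labelled antibody, ECL read against each well's blank, with signal-to-blank of at least 4 scored as binder.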

In experiment [4] the target is T3, rHuman P-Cadherin/Fc Chimera, CF (R&D Systems Cat#861-PC) (human, UniProt P22223 108-654).
T3 construct: Bought recombinant protein; Fc part of the bought chimera not given
The experiment is described as above.

The target in experiment [5] is T4, Recombinant Human DLL4 (delta-like protein 4) (human, UniProt Q9NR61 27-529).
T4 construct: Bought recombinant human DLL4 (R&D Systems Cat#1506-D4/CF); also called rHuman DLL4; Delta-like 4
Put plainly: ELISA, DLL4 coated on plate, Fab in solution, absorbance at 450 nm.

For experiment [6], the target named is T4, Recombinant Human DLL4 (delta-like …). Put plainly: 96-well plate ECL binding assay, DLL4 immobilised, Fab in solution.
Experiment [7] has as its target T5, Recombinant Human DLL4 (human, UniProt Q9NR61 27-524).
T5 construct: Bought recombinant human DLL4 (R&D Systems 1506-D4/CF); also called delta-like protein 4; rHuman DLL4
The experiment is described as follows: ELISA on plate-coated DLL4, Fab at 0.74 nM (3-fold serial dilution).

Experiment [8] deals with T5, Recombinant Human DLL4. The experiment is described as follows: ELISA on plate-coated DLL4, Fab at 6.67 nM (3-fold serial dilution).
Experiment [9] addresses T5, Recombinant Human DLL4. The experiment is described as follows: ELISA on plate-coated DLL4, Fab at 20 nM (3-fold serial dilution).
Experiment [10] has as its target T5, Recombinant Human DLL4. Put plainly: ECL (MSD) binding assay, Fab on immobilised recombinant human DLL4; Fab concentration not given in the table.
For experiment [11], the target named is T5, Recombinant Human DLL4. Put plainly: ELISA on plate-coated DLL4, Fab at 2.22 nM (3-fold serial dilution).

Residue numbers refer to the chain shown, from its start. Names may count otherwise.

B1: Fab VH5-51_IGHD5-18*01>3_IGHJ4*01 G100D & V3-4_IGLJ1*01 (Fab, V domains shown)
VH: EVQLVQSGAEVKKPGESLKISCKGSGYSFTSYWIGWVRQMPGKGLEWMGIIYPGDSDTRYSPSFQGQVTISADKSISTAYLQWSSLKASDTAMYYCARRDYSYGYDYFDYWGQGTLVTVSS
VL: QTVVTQEPSFSVSPGGTVTLTCGLSSGSVSTSYYPSWYQQTPGQAPRTLIYSTNTRSSGVPDRFSGSILGNKAALTITGAQADDESDYYCVLYMGSGISYVFGTGTKVTVL
notes: Fab; VH-CH1 (His6/Flag, Plasmid A) and VL-lambda CL (Plasmid E)
In the case of B1, the Signal/Noise with Recombinant Human DLL4 [1] turned out to be 5.8; with Recombinant Human DLL4 [2], 2.

B2: Fab VH5-51_IGHD5-18*01>3_IGHJ4*01 G100T & V3-4_IGLJ1*01 (Fab, V domains shown)
VH: B1 VH with D100T
VL: B1 VL
notes: as for B1
For B2, the Signal/Noise in the experiment with Recombinant Human DLL4 [1] was 26; in the experiment with Recombinant Human DLL4 [2], 11.

B3: Fab VH5-51_IGHD5-18*01>3_IGHJ4*01 G104M & V3-4_IGLJ1*01 (Fab, V domains shown)
VH: B1 VH with D100G, G104M
VL: B1 VL
notes: as for B1
As for B3, the Signal/Noise was 29.1 with Recombinant Human DLL4 [1] and 12.3 with Recombinant Human DLL4 [2].

B4: Fab VH5-51_IGHD5-18*01>3_IGHJ4*01 G104D & V3-4_IGLJ1*01 (Fab, V domains shown)
VH: B1 VH with D100G, G104D
VL: B1 VL
notes: as for B1
Take B4: the Signal/Noise with Recombinant Human DLL4 [1] is 42.5; with Recombinant Human DLL4 [2] it was 23.2.

B5: Fab VH5-51_IGHD5-18*01>3_IGHJ4*01 G100R & V3-4_IGLJ1*01 (Fab, V domains shown)
VH: B1 VH with D100R
VL: B1 VL
notes: as for B1
Regarding B5, the values for the Signal/Noise with Recombinant Human DLL4 [1] and with Recombinant Human DLL4 [2] were 90.6 and 39.9, respectively.

B6: Fab VH5-51_IGHD5-18*01>3_IGHJ4*01 G104K & V3-4_IGLJ1*01 (Fab, V domains shown)
VH: B1 VH with D100G, G104K
VL: B1 VL
notes: as for B1
Take B6: the Signal/Noise with Recombinant Human DLL4 [1] was 17.6; with Recombinant Human DLL4 [2], 9.1.

B7: Fab VH5-51_IGHD5-18*01>3_IGHJ4*01 G100K & V3-4_IGLJ1*01 (Fab, V domains shown)
VH: B1 VH with D100K
VL: B1 VL
notes: as for B1
For B7, the Signal/Noise with Recombinant Human DLL4 [1] turned out to be 134; in the experiment with Recombinant Human DLL4 [2] it was 72.6.

B8: Fab VH5-51_IGHD5-18*01>3_IGHJ4*01 G104A & V3-4_IGLJ1*01 (Fab, V domains shown)
VH: B1 VH with D100G, G104A
VL: B1 VL
notes: as for B1
As to B8, the Signal/Noise with Recombinant Human DLL4 [1] came to 6.7; in the experiment with Recombinant Human DLL4 [2], 2.6.

B9: Fab VH5-51_IGHD5-18*01>3_IGHJ4*01 G104S & V3-4_IGLJ1*01 (Fab, V domains shown)
VH: B1 VH with D100G, G104S
VL: B1 VL
notes: as for B1
As for B9, the results for the Signal/Noise with Recombinant Human DLL4 [1] and with Recombinant Human DLL4 [2] were 47.8 and 25.6, respectively.

B10: Fab VH5-51_IGHD5-18*01>3_IGHJ4*01 G100K/G104T (H:KT) & V3-4_IGLJ1*01 G97A (Fab, V domains shown)
VH: B1 VH with D100K, G104T
VL: B1 VL with G97A
notes: Fab; Expressed from Plasmid A (CH1, His6 and Flag tags) and Plasmid E (lambda CL); also called KT & G97A
For B10, the values for the ECL signal in experiment [3] and in experiment [4] were 14900 and 474, respectively.

B11: Fab VH1-46_IGHD6-6*01_IGHJ1*01 S102A/S103P/S104F/H111F & L6_IGKJ1*01 S28N/S30D/S31H N53M (Fab, V domains shown)
VH: QVQLVQSGAEVKKPGASVKVSCKASGYTFTSYYMHWVRQAPGQGLEWMGIINPSGGSTSYAQKFQGRVTMTRDTSTSTVYMELSSLRSEDTAVYYCAREEYAPFSAEYFQFWGQGTLVTVSS
VL: EIVLTQSPATLSLSPGERATLSCRASQNVDHYLAWYQQKPGQAPRLLIYDASMRATGIPARFSGSGSGTDFTLTISSLEPEDFAVYYCQQRSNWPPWTFGQGTKVEIKR
notes: Fab with CH1 (plasmid A, His6 and Flag tags) and kappa CL (plasmid C); also called H:APFF & L:NDH N53M
Consider B11, for which, in experiment [5], the “ELISA (Avgerage signal-noise)” value was found to be 0.162. Further, in experiment [6], the “ECL signal” value was determined as 17800.

B12: Fab VH1-46_IGHD6-6*01_IGHJ1*01 S102A/S103P/S104F/H111F N52L/S54T/G56H & L6_IGKJ1*01 S28N/S30D/S31H S52L/A55G (Fab, V domains shown)
VH: B11 VH with N52L, S54T, G56H
VL: B11 VL with S52L, M53N, A55G
notes: Fab expressed in E. coli: VH joined to CH1 from Plasmid A (His6 and Flag tags), VL joined to kappa CL from Plasmid C; also called H:APFF LTH & L:NDH LG
For B12, the ELISA signal in the experiment with Recombinant Human DLL4 [7] amounted to 0.368; in the experiment with Recombinant Human DLL4 [8], 0.88; with Recombinant Human DLL4 [9] it was 1.01; with Recombinant Human DLL4 [11] it was 0.594. For the same molecule, the “ECL signal” value in the experiment with Recombinant Human DLL4 [10] worked out at 9010.
